The values that follow come from patent US20220074947A1 (UCB, published 2022).

The target of assay [1] is T1, human TNFα in complex with compound (2) (human, UniProt P01375 77-233).
T1 construct: also called human TNFα +compound (2); compound-distorted human TNFα
The assay is described as follows: SPR (BIAcore), against apo human TNFα.

The target of assay [2] is T2, human TNFα in complex with compound (1) (human, UniProt P01375 77-233).
T2 construct: also called human TNFα +compound (1); TNFα-compound (1) complex
T2 sequence (P01375 77-233 limits assumed, one chain of several): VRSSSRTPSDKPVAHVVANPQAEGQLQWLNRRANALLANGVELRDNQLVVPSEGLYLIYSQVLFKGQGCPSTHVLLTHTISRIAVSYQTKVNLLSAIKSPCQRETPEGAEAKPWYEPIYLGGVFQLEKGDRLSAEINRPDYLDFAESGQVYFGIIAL
The assay is described as follows: SPR (BIAcore), against apo human TNFα.

T1 sequence (P01375 77-233 limits assumed, one chain of several): as above

B1: CA185_01979 mouse IgG1 (antibody, V domains shown)
VH: EVHLVESGPGLVKPSQSLSLTCSVTGYSITNSYWDWIRKFPGNKMEWMGYINYSGSTGYNPSLKSRISISRDTSNNQFFLQLNSITTEDTATYYCARGTYGYNAYHFDYWGRGVMVTVSS
VL: DIQMTQSPASLSASLEEIVTITCQASQDIGNWLSWYQQKPGKSPHLLIYGTTSLADGVPSRFSGSRSGTQYSLKISGLQVADIGIYVCLQAYSTPFTFGSGTKLEIKR
notes: mIgG1 heavy chain and kappa light chain; also called CA185_01979.0; VR0001842
In the case of B1, the “selective binding for compound-distorted over apo human TNFα (log)” value in assay [1] and in assay [2] was > 2 log each time.
